What was measured:
Format in all cases: cell-based
p42^mapk = experiment: Phosphorylation of p42^mapk in rat VSMCs (western blotting); details: in words; western blot
Method: (§1) The resulting culture was incubated for 24 hours. 50 ng/ml of PDGF-BB was added thereto and kept for 5 minutes. […] The above procedure was also repeated without PDGF-BB treatment.
(§2) The VSMC was lysed and the VSMC lysate(corresponding amount to 70 μg proteins) was subjected to SDS-PAGE. The proteins separated on the gel was transferred to a nitrocellulose membrane and the membrane was saturated with Tris buffered saline(TBS) containing 3% milk protein. A primary antibody(Promega, dilution ratio: 1:5,000) for catalytically activated p44^mapk /p42^mapk whose threonine and tyrosine residues are phosphorylated, was added thereto and kept over night. The membrane was washed three times with TBS containing 0.05% Tween 20. The membrane was reacted with a horseradish peroxidase-conjugated anti-IgG secondary antibody and developed using Amersham ECL kit. Linearity of MAPK concentration-ECL signal correlation was examined using standard p42, a recombinant, activated MAPK(Upstate Biotechnology), and serially diluted artery tissue homogenate. Bands on the X-ray film were quantified using Molecular Dynamics personal laser densitometer.

rat VSMCs = experiment: Inhibition of VSMC growth, 3H-thymidine DNA incorporation, in the presence of PDGF-BB; details: in words; 50 ng/ml PDGF-BB, control data
Method: Each rat was suffocated with CO2, and its chest was disinfected and incised to remove the arteriae aorta. All operative apparatus and glass articles were autoclaved and all operations were conducted on a clean bench. The arteriae aorta was dipped in physiological salt solution(PSS) and its adipose tissues were removed. The resulting arteriae aorta was treated with 0.2% collagenase in an incubator maintained at 37° C. for 30 minutes. Its endothelium and adventitia were removed and the resulting arteriae aorta was ground up. A complete DMEM (DMEM containing 10% FBS, an antibiotic and glutamine) containing 0.2% collagenase was added thereto and the resulting mixture was kept at 37° C. for 4 hours while shaking with an orbital shaker.
The resulting mixture was centrifuged at 1,500×g for 5 minutes to remove the collagenase and the cell precipitate was suspended in an appropriate amount of complete DMEM. […]
The wells were washed twice with a serum-free medium, Hunger medium(Gibco), and fresh Hunger medium was added thereto. […] A 50 μl portion of the resulting reaction mixture was subjected to protein quantification. Further, a 100 μl portion of the resulting reaction mixture was added to 5 ml of a cocktail solution to measure the radioactivity, thereby determining the amount of ^3 H-thymidine incorporated into the cell. […]

p44^mapk = experiment: Phosphorylation of p44^mapk in rat VSMCs (western blotting); details: in words; western blot
Method: as §1, §2

B1: PDGF-BB: platelet derived growth factor(PDGF)-BB (protein, UniProt P01127 82-190, looked up)
Platelet-derived growth …: SLGSLTIAEPAMIAECKTRTEVFEISRRLIDRTNANFLVWPPCVEVQRCSGCCNNRNVQCRPTQVQLRPVQVRKIEIVRKKPIFKKATVTLEDHLACKCETVAAARPVT
modifications: BB homodimer
phosphorylated p44^mapk /p42^mapk band density (p42) (p42^mapk): enhanced density as compared with the blank | VSMC growth on PDGF-BB treatment (rat VSMCs): greatly enhances the VSMC growth | phosphorylated p44^mapk /p42^mapk band density (p44) (p44^mapk): enhanced density as compared with the blank
